Data on 21 sequences can be found in the DeepSol protein solubility set.

The nature of the series: soluble on expression in E. coli; label from the status in PepcDB or PDB records.
Turning to “MEENSIKIHKWLYPASWLYGAGVALRNKLFDWGKLQSKSFNVPIICIGNIAVGGTGKTPHTEYLIKLLHDEFQVAVLSRGYKRHTKGFVLSTAESDARSIGDEPYQIQSKFSDIRVAVDEDRCHGIERLLTLKEPPVEVILLDDAFQHRYVKAGLNILLTDYHRLFCDDTLMPAGRLRESAQGKNRAQIVIVTKCPPDIKPIDYNIITKRLNLFPYQQLYFSSFRYGNLRAVFPDCATVQERKLSSLQTEEQILLITGIASPDTIIRELEIHTRNIDLLAFSDHHNFSQRDLAQIKERFGKLRKGQRLIVTTEKDATRLICHQELDEGLKPFIYALPIEVEILQNQQDNFNQHIIGYVRENTRNGSLPERKDAHKSLEHHHHHH”, the “soluble on expression in E. coli” value is given as “soluble”.

Turning to “MEENTKEMIVIDSVDRYNEIFGLETRHPLVSIIDLAKSTTWPTRAWFRYEVYALYLKNVKCGDIKYGRQYYDYQDGTIVCFAPGQITDLEMLPNIQPNAHGILFHPDLIRGTALGQEIKKYSFFSYETNEALHISEEERQTVMDCLQKITIELEHSIDKHSRRLICANIGLLLDYCMRFYERQFDTRNGVNKDIIVRFEHLLNEYFEGDAPQNQGLPSVKYFADKVFLSANYFGD”, the “soluble on expression in E. coli” value is “not soluble”. As for “MEESINQNPEAMEALISNLFGNISSLKSAYIELQSAHTPYDPEKIQAADKVVISELKNLSEMKHFYRENNPKPVCVSPQDSRLAAEIQEQQSLLKTYEVMVKKFQSEIQNKDSEITQMLQKIEEANQKRLKLEKNLKLRGMSTNQGSGGDGNLQFPDLTTELFVSTYEAAAKVVHDFSKPLINMMKAAGWDLDTAANSIEPDVVYAKRPHKEYAFESYICQRMFSGFQQKNFSVNSESATVMADDDTDTFFRQFLALKDMDPLDALDQRDYVTGGGHPRTAFYQAFLKLAKSIWILHKLAYSFDPAAKIFQVKKGSEFSDSYMESVVKNIH”, the “soluble on expression in E. coli” value is given as “soluble”. Then “MEESRADGRNPNQLRPFSCTRNPLDRAHGSARWAQGDTIVLAAVYGPKPGTRKGENPEKASIEVVWKPMTGQIGKQEKEYEMTLKRTLQSICLLTVHPNTTTSVILQVVGNDGSLLPCAINACCAALVFAGIPLKHLAVAIGCGVLEDGEVILDTNKAEEQQLKSFAHLVFPNSRKSASSKEPNQKEEDSERGLITSITHGVMSEEDYFSCIERGLAASSRISDFMRTTLQKQAPGDVLEHHHHHH”, with “soluble”. Then “MEFPDLGAHCSEPSCQRLDFLPLKCDACSGIFCADHVAYAQHHCGSAYQKDIQVPVCPLCNVPVPVARGEPPDRAVGEHIDRDCRSDPAQQKRKIFTNKCERSGCRQREMMKLTCDRCGRNFCIKHRHPLDHECSGEGHQTSRAGLAAISRAQGLASTSTAPSPSRTLPSSSSSSRATPQLPTRTASPVIALQNGLSEDEALQRALELSLAEAKPQVLSSQEEDDLALAQALSASEAEYQQQQAQSRSLKPSNCSLC”, with “soluble”; and “MEFTAEQLSQYNGTDESKPIYVAIKGRVFDVTTGKSFYGSGGDYSMFAGKDASRALGKMSKNEEDVSPSLEGLTEKEINTLNDWETKFEAKYPVVGRVVS”, with “soluble”. Turning to “MEGEKGSKTRKGDALAREKLLEIAEKIYNQFEEEVVPSVSLPSRTKANLEYSDESDVWVYGDRESERSAKTVKGAFQLLKTTYATDFLINEHLARNRGSTLRELYYISEGWDYAKFKEQGESDRLIEDLEILTSLQREYFHMRPEEDGATMFGPIEITEQTKRGERNIHCQKDVGEGGYQIPFNVENIEFQKHDASMIIAIETGGMYARLMENGFDEAYNAILVHLKGQPARSTRRIIKRMNEELGIPVAVFTDGDPWSYRIYASVAYGAIKSAHLSEFMATPAAKFLGLQPSDIVEYELSTDKLTEQDVSALRSELSDPRFESDYWKEQIQLQLDIGKKAEQQAFAGKGLDFVTEVYLPNRLKEMGMI”, the “soluble on expression in E. coli” value is “soluble”.

As for “MEGRLTVVPTPIGNLEDITLRALKVLREADLILAEDTRTSSVLLHHYDIHCPLQSHHKFNEHRTAKSLAERISGGERIALISDAGTPGISDPGFLLVRACAELGVVVECLPGPTALIPALVASGLPADRFVFEGFLPVKKGRQTRMKELAEELRTMIFYESPHRVLRTLTQFVETFGLDRPAAACRELSKLHEEVIRGTLAELLAHFENHPPRGEFVLIVGGAAPKGRKEEKQ”, the “soluble on expression in E. coli” value is on record as “not soluble”.

For “MEHEQHSSINDILHHYKEGIGSFTNQIPEIAETYNAFTQACFQEGALTKREKQLIALGISLATQDEYCTIYHTKGCLDQGCSDKEILEACGVSAAFAGGAAMSQAVTLVQECLTELKNQKH”, the “soluble on expression in E. coli” value was “not soluble”.

Turning to “MEHRDIVIVGGGMVGSALGAALSGKGLSVSVLEREAPAPFAPEQAPDLRVSAISPASAAFLQTIGAWGQALAMRAAPYRRMQVWERDEAAGTLFDAAEAGVPELGHIVENRVVQLAATEALLAKGDIDYRCPAVVSDIVYRPQASQLTLSDGSRLQARLLIAADGARSQVRDAAGIGVTGWDYPMHALVLSCRIDGGQQDITWQRFTPDGPQAFLPLSGDAASLVWYHRPEEVKRLLTLGDDELIAAVSQAFPRKLPGIRELAARGSFGLTRRHAQCYVKDGVALAGDAAHTIHPLAGQGVNLGFQDAAMLARTILDAHAKGEDWASGKTLVRYQRARKPANLAMQAGMDAFCYGFANDIGPLRLLRGLGLRLADKAGPLKREAIRYALGLRALEHHHHHH”, the “soluble on expression in E. coli” value is given as “not soluble”. Then “MEIARKVMEEFLEIWNEALAKRSLPGKFVNKDLNFGEFGLGDNYTPQHTAVRNYALVMAHMIATVQAVSG”, with “not soluble”; and “MEIHTYEKEFFDLLKRISHYSEAVALMHWDSRTGAPKNGSEDRAESIGQLSTDIFNIQTSDRMKELIDVLYERFDDLSEDTKKAVELAKKEYEENKKIPEAEYKEYVILCSKAETAWEEAKGKSDFSLFSPYLEQLIEFNKRFITYWGYQEHPYDALLDLFEPGVTVKVLDQLFAELKEAIIPLVKQVTASGNKPDTSFITKAFPKEKQKELSLYFLQELGYDFDGGRLDETVHPFATTLNRGDVRVTTRYDEKDFRTAIFGTIHECGHAIYEQNIDEALSGTNLSDGASMGIHESQSLFYENFIGRNKHFWTPYYKKIQEASPVQFKDISLDDFVRAINESKPSFIRVEADELTYPLHIIIRYEIEKAIFSNEVSVEDLPSLWNQKYQDYLGITPQTDAEGILQDVHWAGGDFGYFPSYALGYMYAAQLKQKMLEDLPEFDALLERGEFHPIKQWLTEKVHIHGKRKKPLDIIKDATGEELNVRYLIDYLSNKYSNLYLL”, with “soluble”. Then “MEIKEVLPCIADPKKLRVIGRVDGNFPAVMPYLARLIPNASYNEKRGWISFKKGQRIITIHEDGFVAMTQIKDEDEAKSILGEIEQKAQEAWEKRNKIDLSKPLEKTVVSPFDVYNYLPKTNCKRCGEQTCMAFAVKLLNGEVDIKACKPLFEDKKYEGLRETLIGMLVAAGYDLEL”, with “soluble”; and “MEINTIIGNNLKKIRQEKKLTLDELAGITGVSKGMLSQIEKGTTNPTINTIWKISNGLNVPYTYLLEDDYVKENPVVKKTETVTQHSEDHSYRVFNYYSDNQERNFELFQFELDPGKKYQAVGHSKRSTEYVMVIQGALALEVGGQRYLLPKDAAMYFDANQVHTYINDGTEKVQAVVINYYT”, with “not soluble”. Then “MEINVDQINLMTKKGLRGDLKNFESVLDFLEKYGNATIVKYGMYSLVFQIAMNKFIDISKECEECGGKCCQIGYPVPVYGFDYEELRNKLSMEDLKKLEKVDSNLFLLRRPCKFQKGWYCSIHKFKPYACLSYPFATEDEQRDAINSYDGKGIPDLEHHHHHH”, with “not soluble”; and “MEKFGKPLEENGKEATATVIGLGKLGSEELNYYSDVDLMFIHSTDKGKAGNLSLNDFFQRLFQKVVKLLNAQTPEGVPYFVDLDLRPFGKSGPLSMPLRSAELYYESYGRIWERFALLRARYCAGDEELAQKFMKEVVRPFVFGPADYKLVEEIRLMKKRIEAEAKKKFIKGYNVKTGEGGIREVEFSVQSLVILLGSKTPILRESNTYRAIYKLMQKGVFSSEEAQKLEESYTFLRKLEHRIQLRECLQTQVLKESDKETFAKFLGFESKEEFEEKLKETRAFVKSVFSQILPEREEEELDELQEAVIMEDEESGTQILKQKGFKSTRQIFTLLSEPLYGSMNVHFTEKEKKLYIKLIPKLVNLALSSQNPDQSIKNFFKFFFNPTGRRVILSEHKREEFLEKLFTVFSVSDYLSHLVARNPDLVEDALTLYRDFPKFEDFKREFEKYRETLNLSPENLYRRFKTVWEVRIGLVYLLKEEDRYEKLKKLYISLSTLADFILSNLWKDITLEENTALLYALGKLGSRELNFNSDLDLVFAVKSLEEKEKVHEKAKELVRFLTAHTTEGYLYSVDFRLRPMGSKGELVPTFDFYKKYFEKEARTWERLAWTRARYITGNEEFKEEFERLIENFLFEKPWGEKEKREVYEMRMKLQSVAKRGRGVVDLKLGEGGIVDGEFLVQYLLIKEKIRETSMIRGFEVLMEKYPRLKEAYDSFMFLRLVETHLRLSKERGTSVLSEQDIPKVALSLGMKPEELKESIKEKMKKMREVFNEFLAQ”, with “not soluble”; and “MEKKKVVLAYSGGLDTSVAIKWLQEKNYDIIALCLDLGEGKDLAFVKEKALSVGAIKSYMIDVQEEFANEYALMAMQAHTLYEGKYPLVSALSRPLIAKKLVEIAEQEGATAVAHGCTGKGNDQVRFEVSIQALNPYLEVIAPVREWKWSREEEIAYAKENNVPIPINLDSPFSIDQNLWGRSNECGILEDPWAAPPEDAYEMTLALEDTPNKPEFVEIGFEAGVPTTLNGTAYPLSELIKTLNALAGKHGVGRIDHVENRLVGIKSREVYECPAAMTLITAHKELEDLTLVKEVAHFKPMIEQKITELIYNGLWFSPLKQALHAFLQETQKNVTGTVRVKLFKGHAIVEGRKSEYSLYDEKLATYTAQDEFNHDAAVGFISLFGLPTKVYSQVNQKKVEA”, with “not soluble”. For the sequence “MEKKLVPQSISKERLQKLEAQATLTPQQEEAKARKIEREKARLKELNIPTESKESKDCSPAGMINPYALTEVILERPLDWSNPRTTDIVERVLGSSMQDLSKGDSVLRAGRDQNAEVKIVDSVLTKTQRGQDGLERILESFNDYDMPPEEKEEAAPKAKKAAQKLDIDDLREQALSSTTITKEISKIILPTKNLRDDNNTVHQYREVGFQSNGAHNLWDTVVQGIAGDC”, the “soluble on expression in E. coli” value is listed as “not soluble”. Regarding “MEKQYRVLLYYKYVPIEDPEAFREQHLAFCKELGLLGRILVSSEGINGTVSGTVEQTEKYMETMKADPRFADMVFKIDEAEGHAFKKIFVRHKKELVTLRLEDDVDPNETTGQHLKPAEFYEKMQDPNTIVIDARNDYEYDLGHFRGAVRPDIEAFRELPEWIEEHKDMLEGKKILTYCTGGVRCEKFSGWLVKQGFEDVAQLDGGIVTYGKDPEVQGKLWDGQCYVFDERISVPVNRVEHVIVGKDYFTGEPCERYVNCANPSCNKKMICTPENEYKYMRSCSHECRTNPRNLYVKEHNMTEEEVNARLAAIETEDHAAAELEHHHHHH”, the “soluble on expression in E. coli” value is “soluble”. For the sequence “MEKRRVILVTDGDEFACRAIERVAAEIGGRCISRSQGNPTKLSGEQLVELILQTPHDPVFVMFDDCGALGEGAGEQALRYVATHEQIQVLGALAVASNTHQHEWTKVHVSIDRDGVMTEYGVDKEGFRDLEIGRINGDTVYCLDRLNIPLIVGIGDIGKMGYRDHAKYGAPITRKAVELILERSGGHAGKRKETESADREAAR”, the “soluble on expression in E. coli” value is “not soluble”. Then “MEKVHYAAIDVGSNAVRLLIKCVNSEGMEEPLSKVLIMRVPIRLGEDSFTKGYIGEEKTDNMVRLMRAYYEMMQIYRVKDYRACATSAMRDASNAEAVIAQIREKTGIHIDIIDGDEEARLVSDNHIEQIISDGGNYIYLDVGGGSTELTIPAAEIFLEVADITGAKTIIAPIVGLADGIIEDLYIRHQSQPSLEHHHHHH”, with “soluble”.
